Laboratory results published in patent US20090291081A1.

B1: ABT1-98/ABT2-108-538x scFc (Fc fusion, part only; not given: Domain junction linker and Fc, not shown: a dimerising Fc or GST)
chain, part: EVQLLESGGGLVQPGGSLRLSCAASGFTFDGYIMSWVRQAPGKGLEWVSTISPLGSVTYYADSVKGRFTISRDNSKNTLYLQMNSLRAEDTAVYYCAKKGPWFDYWGQGTLVTVSSEVQLLESGGGLVQPGGSLRLSCAASGFTFADEGMMWVRQAPGKGLEWVSRITYSGKNTYYADSVKGRFTISRDNSKNTLYLQMNSLRAEDTAVYYCAKYTGRILGHHLFDYWGQGTLVTVSSGGGGSGGGGSGGGGS
B2: ABT1-207/ABT2-108-538x scFc (Fc fusion, part only; not given: Domain junction linker and Fc, not shown: a dimerising Fc or GST)
chain, part: EVQLLESGGGLIQPGGSLRLSCAASGFTFGRYYMSWVRQAPGKGLEWVSSIDYLGTNTYYADSVKGRFTISRDNSKNTLYLQMNSLRAEDTAVYYCAKLTRIRPPNFDYWGQGTLVTVSSEVQLLESGGGLVQPGGSLRLSCAASGFTFADEGMMWVRQAPGKGLEWVSRITYSGKNTYYADSVKGRFTISRDNSKNTLYLQMNSLRAEDTAVYYCAKYTGRILGHHLFDYWGQGTLVTVSSGGGGSGGGGSGGGGS
B3: ABT2-108-538x/ABT1-98 scFc (Fc fusion, part only; not given: Domain junction linker and Fc, not shown: a dimerising Fc or GST)
chain, part: EVQLLESGGGLVQPGGSLRLSCAASGFTFADEGMMWVRQAPGKGLEWVSRITYSGKNTYYADSVKGRFTISRDNSKNTLYLQMNSLRAEDTAVYYCAKYTGRILGHHLFDYWGQGTLVTVSSEVQLLESGGGLVQPGGSLRLSCAASGFTFDGYIMSWVRQAPGKGLEWVSTISPLGSVTYYADSVKGRFTISRDNSKNTLYLQMNSLRAEDTAVYYCAKKGPWFDYWGQGTLVTVSSGGGGSGGGGSGGGGS
B4: ABT2-108-538x/ABT1-207 scFc (Fc fusion, part only; not given: Domain junction linker and Fc, not shown: a dimerising Fc or GST)
chain, part: EVQLLESGGGLVQPGGSLRLSCAASGFTFADEGMMWVRQAPGKGLEWVSRITYSGKNTYYADSVKGRFTISRDNSKNTLYLQMNSLRAEDTAVYYCAKYTGRILGHHLFDYWGQGTLVTVSSEVQLLESGGGLIQPGGSLRLSCAASGFTFGRYYMSWVRQAPGKGLEWVSSIDYLGTNTYYADSVKGRFTISRDNSKNTLYLQMNSLRAEDTAVYYCAKLTRIRPPNFDYWGQGTLVTVSSGGGGSGGGGSGGGGS

What follows are binders tested against human IL-1α (human) (UniProt P01583) (assay: cell-based or functional assay).
human IL-1α (human), sequence (P01583 113-271 limits assumed): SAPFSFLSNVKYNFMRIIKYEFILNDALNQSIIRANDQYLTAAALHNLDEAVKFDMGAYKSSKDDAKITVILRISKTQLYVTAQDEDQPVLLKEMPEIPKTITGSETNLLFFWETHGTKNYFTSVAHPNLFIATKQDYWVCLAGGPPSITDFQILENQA
Binder B1 has an Estimated EC50, IL-1α neutralization (MRC-5) of 30 nM. B2 gave an Estimated EC50, IL-1α neutralization (MRC-5) of 25 nM. B3 showed an Estimated EC50, IL-1α neutralization (MRC-5) of 3 nM. For B4, the Estimated EC50, IL-1α neutralization (MRC-5) was 50 nM.

The binders below were run against human IL-1β (human) (UniProt P01584) (assay: cell-based or functional assay).
human IL-1β (human), sequence (P01584 117-269 limits assumed): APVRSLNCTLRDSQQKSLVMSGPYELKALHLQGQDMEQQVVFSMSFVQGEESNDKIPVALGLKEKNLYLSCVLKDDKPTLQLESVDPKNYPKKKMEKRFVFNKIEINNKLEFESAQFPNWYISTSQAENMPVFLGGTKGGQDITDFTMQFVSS
Work on B1 yielded an Estimated EC50, IL-1β neutralization (MRC-5) of 1.3 nM. B2 gave an Estimated EC50, IL-1β neutralization (MRC-5) of 1.1 nM. With B3 the Estimated EC50, IL-1β neutralization (MRC-5) was < 0.001 nM. B4 gave an Estimated EC50, IL-1β neutralization (MRC-5) of 0.002 nM.
